Tests used:
[1] = tested on: recombinant human histone H2A (wild type)
[2] = tested on: H2A with mutations of six other potential modification sites on the tail domains
[3] = tested on: tailless histone H2A (N- and C-terminal tails deleted)

Sequence of recombinant His-VprBP wild type (chain, as listed by the source): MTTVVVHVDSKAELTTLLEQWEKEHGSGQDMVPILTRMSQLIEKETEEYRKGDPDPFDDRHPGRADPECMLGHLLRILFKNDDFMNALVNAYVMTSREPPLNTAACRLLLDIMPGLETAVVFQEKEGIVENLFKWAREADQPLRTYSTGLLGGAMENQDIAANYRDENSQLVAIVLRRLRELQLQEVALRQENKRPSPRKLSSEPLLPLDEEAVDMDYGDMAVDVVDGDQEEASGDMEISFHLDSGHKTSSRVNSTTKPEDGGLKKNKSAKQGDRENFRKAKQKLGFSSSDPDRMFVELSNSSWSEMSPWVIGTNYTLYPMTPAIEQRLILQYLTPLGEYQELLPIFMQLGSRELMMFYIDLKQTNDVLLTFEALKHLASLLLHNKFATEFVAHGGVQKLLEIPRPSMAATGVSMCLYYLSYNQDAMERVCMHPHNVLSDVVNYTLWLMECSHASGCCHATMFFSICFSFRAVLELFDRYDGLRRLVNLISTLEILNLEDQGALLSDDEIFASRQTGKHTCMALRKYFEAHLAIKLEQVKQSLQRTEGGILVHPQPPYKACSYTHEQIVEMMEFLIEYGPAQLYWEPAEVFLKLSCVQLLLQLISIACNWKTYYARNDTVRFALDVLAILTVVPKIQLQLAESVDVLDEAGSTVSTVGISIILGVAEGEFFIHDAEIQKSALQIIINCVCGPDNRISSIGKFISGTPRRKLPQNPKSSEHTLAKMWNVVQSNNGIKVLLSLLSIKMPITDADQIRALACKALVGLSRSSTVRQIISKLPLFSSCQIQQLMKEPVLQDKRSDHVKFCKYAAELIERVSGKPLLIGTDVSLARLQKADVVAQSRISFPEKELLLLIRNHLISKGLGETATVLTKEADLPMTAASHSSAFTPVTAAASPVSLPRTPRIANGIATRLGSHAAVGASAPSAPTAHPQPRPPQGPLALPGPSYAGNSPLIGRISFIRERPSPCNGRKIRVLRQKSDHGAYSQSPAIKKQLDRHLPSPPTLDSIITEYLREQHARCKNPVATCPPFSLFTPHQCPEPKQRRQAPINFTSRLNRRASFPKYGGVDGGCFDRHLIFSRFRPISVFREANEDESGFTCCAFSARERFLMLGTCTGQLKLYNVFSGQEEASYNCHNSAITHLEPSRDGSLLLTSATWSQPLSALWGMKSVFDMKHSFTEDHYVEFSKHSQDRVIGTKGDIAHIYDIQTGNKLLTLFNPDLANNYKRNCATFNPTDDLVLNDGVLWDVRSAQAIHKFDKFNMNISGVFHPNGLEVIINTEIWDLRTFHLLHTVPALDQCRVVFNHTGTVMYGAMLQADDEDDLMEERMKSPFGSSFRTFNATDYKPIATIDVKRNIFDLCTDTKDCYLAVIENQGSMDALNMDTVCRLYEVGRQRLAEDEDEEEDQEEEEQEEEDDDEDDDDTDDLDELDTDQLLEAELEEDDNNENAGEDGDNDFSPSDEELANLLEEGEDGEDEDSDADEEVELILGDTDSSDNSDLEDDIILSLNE
Sequence of VprBP kinase-dead mutant K194R (chain, as listed by the source K194R): as the sequence (chain, as listed by the source) above, with K194R counted along it

VprBP kinase-dead mutant K194R
H2A phosphorylation in nucleosomes, in vitro kinase assay, autoradiography [1]: mutation of this lysine residue completely abrogated kinase activity

recombinant His-VprBP wild type
H2A phosphorylation in nucleosomes, in vitro kinase assay, autoradiography [2]: mutations of six other potential modification sites on the tail domains had little effect | H2A phosphorylation in nucleosomes, in vitro kinase assay, autoradiography [3]: simultaneous deletion of the N- and C-terminal tails of H2A blocks H2A phosphorylation by VprBP | phosphorylation of free individual histones, in vitro kinase assay with [g-32P]-ATP, autoradiography (recombinant histone H4): a robust phosphorylation of H2A, but not other core histones | H2A phosphorylation in nucleosomes, in vitro kinase assay, autoradiography (histone H2A T120A mutant): VprBP-mediated phosphorylation is completely abolished by mutation of T120 | phosphorylation of H2A in reconstituted nucleosomes, in vitro kinase assay, autoradiography [1]: VprBP generated clear labeling of H2A in the nucleosome after autoradiography | phosphorylation of free individual histones, in vitro kinase assay with [g-32P]-ATP, autoradiography [1]: Autoradiograph of the kinase reaction products showed a robust phosphorylation of H2A, but not other core histones | phosphorylation of free individual histones, in vitro kinase assay with [g-32P]-ATP, autoradiography (recombinant histone H2B): a robust phosphorylation of H2A, but not other core histones | phosphorylation of free individual histones, in vitro kinase assay with [g-32P]-ATP, autoradiography (recombinant histone H3): a robust phosphorylation of H2A, but not other core histones
